{"source": "the RNAGym collection of RNA variant scans (doi:10.1021/acssynbio.7b00057)", "parents": {"B1": {"name": "Pistol ribozyme (parent)", "chain": "GGGUCGUUGUUCCAUAAUCGCGUGGAUAUGGCACGCAAGUUUCUACCGGGCACCGUAAAUGUCCGACUGGAGCCGUUCGGGCGGCUAUAAACAGACCUCAGGCCCGAAGCGUGGCGGCACCUGCCGCCGGUGGUAAAAAAGAUCGGAAGAGCACACGUCU"}}}
{"variants_of": "B1", "test": "aptazyme ON/OFF ratio, guanine; higher = stronger switching; co-transcriptional cleavage with and without guanine"}
{"variant": "U7G U8G G9A U10G U11G C12U", "aptazyme ON/OFF ratio": 1.43}
{"variant": "U7G U8G G9A U10G U11G C12A", "aptazyme ON/OFF ratio": 1.21}
{"variant": "U7G U8G G9A U10G U11G C12G", "aptazyme ON/OFF ratio": 1.3}
{"variant": "U7G U8G G9C U10A U11A C12A C13U", "aptazyme ON/OFF ratio": 1.04}
{"variant": "U7G U8G G9C U10A U11A C12A C13G", "aptazyme ON/OFF ratio": 1.04}
{"variant": "U7G U8G G9C U10A U11A C12A C13A", "aptazyme ON/OFF ratio": 1.05}
{"variant": "U7G U8G G9A U10G U11C C12G C13A", "aptazyme ON/OFF ratio": 1.16}
{"variant": "U7G U8G G9A U10G U11C C12G C13G", "aptazyme ON/OFF ratio": 1.13}
{"variant": "U7G U8G G9A U10G U11C C12G C13U", "aptazyme ON/OFF ratio": 1.28}
{"variant": "U7G U8G G9A U10G U11G", "aptazyme ON/OFF ratio": 1.61}
{"variant": "U7G U8G G9A U10G U11C", "aptazyme ON/OFF ratio": 1.05}
{"variant": "U7G U8G G9A U10G U11G C12U C13A", "aptazyme ON/OFF ratio": 1.71}
{"variant": "U7G U8G G9A U10G U11G C12U C13G", "aptazyme ON/OFF ratio": 1.27}
{"variant": "U7G U8G G9A U10G U11G C12U C13U", "aptazyme ON/OFF ratio": 1.11}
{"variant": "U7G U8G G9C", "aptazyme ON/OFF ratio": 4.59}
{"variant": "U7G U8G G9C U10A", "aptazyme ON/OFF ratio": 1.58}
{"variant": "U7G U8G G9C U10A C12G C13G", "aptazyme ON/OFF ratio": 1.04}
{"variant": "U7G U8G G9C U10A C12G C13A", "aptazyme ON/OFF ratio": 1.05}
{"variant": "U7G U8G G9C U10A C12G C13U", "aptazyme ON/OFF ratio": 1.04}
{"variant": "U7G U8G G9A U11C C12G", "aptazyme ON/OFF ratio": 1.33}
{"variant": "U7G U8G G9A U11C C12A", "aptazyme ON/OFF ratio": 1.5}
{"variant": "U7G U8G G9A U11C C12U", "aptazyme ON/OFF ratio": 1.65}
{"variant": "U7G U8G G9C U10A U11A C13U", "aptazyme ON/OFF ratio": 1.07}
{"variant": "U7G U8G G9C U10A U11A C13G", "aptazyme ON/OFF ratio": 1.02}
{"variant": "U7G U8G G9C U10A U11A C13A", "aptazyme ON/OFF ratio": 1.06}
{"variant": "U7G U8G G9A U11G C12U C13G", "aptazyme ON/OFF ratio": 1.25}
{"variant": "U7G U8G G9A U11G C12U C13A", "aptazyme ON/OFF ratio": 1.23}
{"variant": "U7G U8G G9A U11G C12U C13U", "aptazyme ON/OFF ratio": 1.4}
{"variant": "U7G U8G G9A U10G U11C C12U", "aptazyme ON/OFF ratio": 1.27}
{"variant": "U7G U8G G9A U10G U11C C12A", "aptazyme ON/OFF ratio": 1.4}
{"variant": "U7G U8G G9A U10G U11C C12G", "aptazyme ON/OFF ratio": 1.26}
{"variant": "U7G U8G G9C U10A U11C C12A", "aptazyme ON/OFF ratio": 1.06}
{"variant": "U7G U8G G9C U10A U11C C12U", "aptazyme ON/OFF ratio": 1.08}
{"variant": "U7G U8G G9C U10A U11C C12G", "aptazyme ON/OFF ratio": 1.11}
{"variant": "U7G U8G G9A U11C C12U C13U", "aptazyme ON/OFF ratio": 1.02}
{"variant": "U7G U8G G9A U11C C12U C13G", "aptazyme ON/OFF ratio": 1.44}
{"variant": "U7G U8G G9A U11C C12U C13A", "aptazyme ON/OFF ratio": 1.31}
{"variant": "U7G U8G G9A U11A C13U", "aptazyme ON/OFF ratio": 1.11}
{"variant": "U7G U8G G9A U11A C13A", "aptazyme ON/OFF ratio": 1.35}
{"variant": "U7G U8G G9A U11A C13G", "aptazyme ON/OFF ratio": 1.06}
{"variant": "U7G U8G G9A U10G U11A C12G C13G", "aptazyme ON/OFF ratio": 1.18}
{"variant": "U7G U8G G9A U10G U11A C12G C13U", "aptazyme ON/OFF ratio": 1.26}
{"variant": "U7G U8G G9A U10G U11A C12G C13A", "aptazyme ON/OFF ratio": 1.13}
{"variant": "U7G U8G G9C U10A U11G C12G", "aptazyme ON/OFF ratio": 1.08}
{"variant": "U7G U8G G9C U10A U11G C12A", "aptazyme ON/OFF ratio": 1.05}
{"variant": "U7G U8G G9C U10A U11G C12U", "aptazyme ON/OFF ratio": 1.12}
{"variant": "U7G U8G G9A U11A C12U C13U", "aptazyme ON/OFF ratio": 1.22}
{"variant": "U7G U8G G9A U11A C12U C13A", "aptazyme ON/OFF ratio": 1.15}
{"variant": "U7G U8G G9A U11A C12U C13G", "aptazyme ON/OFF ratio": 1.12}
{"variant": "U7G U8G G9C U10A C13U", "aptazyme ON/OFF ratio": 1.03}
{"variant": "U7G U8G G9C U10A C13G", "aptazyme ON/OFF ratio": 1.01}
{"variant": "U7G U8G G9C U10A C13A", "aptazyme ON/OFF ratio": 1.05}
{"variant": "U7G U8G G9C U10A U11G C12U C13A", "aptazyme ON/OFF ratio": 1.07}
{"variant": "U7G U8G G9C U10A U11G C12U C13G", "aptazyme ON/OFF ratio": 1.04}
{"variant": "U7G U8G G9A U11G C12G C13A", "aptazyme ON/OFF ratio": 1.12}
{"variant": "U7G U8G G9A U11G C12G C13G", "aptazyme ON/OFF ratio": 1.12}
{"variant": "U7G U8G G9A U11G C12G C13U", "aptazyme ON/OFF ratio": 1.23}
{"variant": "U7G U8G G9C U10A U11C C12U C13A", "aptazyme ON/OFF ratio": 1.06}
{"variant": "U7G U8G G9C U10A U11C C12U C13G", "aptazyme ON/OFF ratio": 1.19}
{"variant": "U7G U8G G9C U10A U11C C12U C13U", "aptazyme ON/OFF ratio": 1.04}
{"variant": "U7G U8G G9C U10A C12A C13U", "aptazyme ON/OFF ratio": 1.04}
{"variant": "U7G U8G G9C U10A C12A C13A", "aptazyme ON/OFF ratio": 1.03}
{"variant": "U7G U8G G9C U10A C12A C13G", "aptazyme ON/OFF ratio": 1.04}
{"variant": "U7G U8G G9C U10A C12A", "aptazyme ON/OFF ratio": 1.03}
{"variant": "U7G U8G G9C U10A C12U", "aptazyme ON/OFF ratio": 1.02}
{"variant": "U7G U8G G9C U10A C12G", "aptazyme ON/OFF ratio": 1.03}
{"variant": "U7G U8G G9C C12U", "aptazyme ON/OFF ratio": 1.94}
{"variant": "U7G U8G G9C C12A", "aptazyme ON/OFF ratio": 1.22}
{"variant": "U7G U8G G9C C12G", "aptazyme ON/OFF ratio": 1.47}
{"variant": "U7G U8G G9A U11A C12A C13A", "aptazyme ON/OFF ratio": 1.23}
{"variant": "U7G U8G G9A U11A C12A C13G", "aptazyme ON/OFF ratio": 1.14}
{"variant": "U7G U8G G9A U11A C12A C13U", "aptazyme ON/OFF ratio": 1.38}
{"variant": "U7G U8G G9A U10G U11A C12U", "aptazyme ON/OFF ratio": 1.13}
{"variant": "U7G U8G G9A U10G U11A C12G", "aptazyme ON/OFF ratio": 1.15}
{"variant": "U7G U8G G9A U11G C12G", "aptazyme ON/OFF ratio": 1.39}
{"variant": "U7G U8G G9A U11G C12U", "aptazyme ON/OFF ratio": 1.5}
{"variant": "U7G U8G G9A U11G C12A", "aptazyme ON/OFF ratio": 1.28}
{"variant": "U7G U8G G9C U10A U11A C12U C13G", "aptazyme ON/OFF ratio": 1.03}
{"variant": "U7G U8G G9C U10A U11A C12U C13U", "aptazyme ON/OFF ratio": 1.02}
{"variant": "U7G U8G G9C U10A U11A C12U C13A", "aptazyme ON/OFF ratio": 1.08}
{"variant": "U7G U8G G9C C12A C13U", "aptazyme ON/OFF ratio": 1.2}
{"variant": "U7G U8G G9C C12A C13A", "aptazyme ON/OFF ratio": 1.22}
{"variant": "U7G U8G G9C C12A C13G", "aptazyme ON/OFF ratio": 1.08}
